Key:
Conditions in all cases: protein: recombinant; tags: His6-MBP N-terminal, removed by TEV; label: 5'-FAM; hairpin
hsTFB1M F144A = hsTFB1M F144A (Homo sapiens, UniProt Q8WVM0 28-346, F144A); test: EMSA; affinity not significantly changed vs WT; EMSA: 50 mM Tris-HCl pH 8.0, 25 mM NaCl, 100 nM RNA, TFB1M 0-2 mM as printed (legend suggests uM), 37 C 30 min; 6% native PAGE, 0.5x TBE
hsTFB1M N36A = hsTFB1M N36A (Homo sapiens, UniProt Q8WVM0 28-346, N36A); test: as above
hsTFB1M Q35A = hsTFB1M Q35A (Homo sapiens, UniProt Q8WVM0 28-346, Q35A); test: as above
hsTFB1M V225A = hsTFB1M V225A (Homo sapiens, UniProt Q8WVM0 28-346, V225A); test: as above
hsTFB1M I152A = hsTFB1M I152A (Homo sapiens, UniProt Q8WVM0 28-346, I152A); test: EMSA; affinity not impaired; EMSA: 50 mM Tris-HCl pH 8.0, 25 mM NaCl, 100 nM RNA, TFB1M 0-2 mM as printed (legend suggests uM), 37 C 30 min; 6% native PAGE, 0.5x TBE
hsTFB1M R195A = hsTFB1M R195A (Homo sapiens, UniProt Q8WVM0 28-346, R195A); test: as above
hsTFB1M E246A = hsTFB1M E246A (Homo sapiens, UniProt Q8WVM0 28-346, E246A); test: as above
hsTFB1M E179A = hsTFB1M E179A (Homo sapiens, UniProt Q8WVM0 28-346, E179A); test: EMSA; affinity improved to some degree; EMSA: 50 mM Tris-HCl pH 8.0, 25 mM NaCl, 100 nM RNA, TFB1M 0-2 mM as printed (legend suggests uM), 37 C 30 min; 6% native PAGE, 0.5x TBE
hsTFB1M Q177A = hsTFB1M Q177A (Homo sapiens, UniProt Q8WVM0 28-346, Q177A); test: as above

Measured: binding result

Chain of hsTFB1M E246A (Q8WVM0 28-346 E246A): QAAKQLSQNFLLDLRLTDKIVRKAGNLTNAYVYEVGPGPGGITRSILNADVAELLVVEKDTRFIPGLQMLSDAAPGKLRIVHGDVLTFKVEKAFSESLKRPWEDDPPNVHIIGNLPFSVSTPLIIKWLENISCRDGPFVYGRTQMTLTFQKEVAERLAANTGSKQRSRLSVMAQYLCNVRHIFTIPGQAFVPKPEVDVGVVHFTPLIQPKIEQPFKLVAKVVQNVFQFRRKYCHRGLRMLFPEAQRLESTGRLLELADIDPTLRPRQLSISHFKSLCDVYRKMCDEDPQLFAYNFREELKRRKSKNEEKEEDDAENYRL
Chain of hsTFB1M Q35A (Q8WVM0 28-346 Q35A): as the sequence (Q8WVM0 28-346 E246A) above, with Q8A, A219E counted along it
Chain of hsTFB1M E179A (Q8WVM0 28-346 E179A): as the sequence (Q8WVM0 28-346 E246A) above, with E152A, A219E counted along it
Chain of hsTFB1M Q177A (Q8WVM0 28-346 Q177A): as the sequence (Q8WVM0 28-346 E246A) above, with Q150A, A219E counted along it
Chain of hsTFB1M R195A (Q8WVM0 28-346 R195A): as the sequence (Q8WVM0 28-346 E246A) above, with R168A, A219E counted along it
Chain of hsTFB1M V225A (Q8WVM0 28-346 V225A): as the sequence (Q8WVM0 28-346 E246A) above, with V198A, A219E counted along it
Chain of hsTFB1M F144A (Q8WVM0 28-346 F144A): as the sequence (Q8WVM0 28-346 E246A) above, with F117A, A219E counted along it
Chain of hsTFB1M I152A (Q8WVM0 28-346 I152A): as the sequence (Q8WVM0 28-346 E246A) above, with I125A, A219E counted along it
Chain of hsTFB1M N36A (Q8WVM0 28-346 N36A): as the sequence (Q8WVM0 28-346 E246A) above, with N9A, A219E counted along it

B1: 5'-FAM h45 RNA (WT) (structured_RNA)
RNA: GGUAAGUGUACUGGAAAGUGCACUUGCC
binds: all assays above

Reference: PMC6698656, “Structural insights into dimethylation of 12S rRNA by TFB1M: indispensable role in translation of mitochondrial genes and mitochondrial function”
